Data published in patent US20190127480A1 (Regeneron, published 2019).

B1: H2M2690N (antibody, mouse IgG2, V domains shown)
VH: EVQLVESGGGLVQPGRSLRLSCAASGFTFDDYTMHWVRQAPGKGLEWVSGISWNSGSIGYADSVKGRFTISRDNAKKSLYLQMNSLRAEDTALYYCAKDNSGYGHYYYGMDVWGQGTTVTVAS
VL: EIVMTQSPATLSVSPGERATLSCRASQSVSSNLAWYQQKPGQAPRLLIYGASTRATGIPARFSGSGSGTEFTLTISSLQSEDFAVYYCQHYINWPLTFGGGTKVEIK
B2: H2M2691N (antibody, mouse IgG2, V domains shown)
VH: EVQLVESGGGLVQPGRSLRLSCAASGFTFDDYTMHWVRQAPGKGLEWVSGISWNSGSIGYADSVKGRFTISRDNAKKSLYLQMNSLRAEDTALYYCAKDNSGYGHYYYGMDVWGQGTTVTVAS
VL: EIVMTQSPATLSVSPGERATLSCRASQSVSSNLAWYQQKPGQAPRLLIYGASTRATGIPARFSGSGSGTEFTLTISSLQSEDFAVYYCQHYINWPLTFGGGTKVEIK
B3: H1M2692N (antibody, mouse IgG1, V domains shown)
VH: EVQLVESGGGLVQPGGSLRLSCAASGFSFDDYTMHWVRQPPGKGLEWVSGISWNSGSIGYADSVKGRFTISRDNAKNSLYLQMNSLRAGDTALYYCAKDNSGYGYYYYYGMDVWGQGTTVTVSS
VL: EIVMTQSPATLSVSPGERATLSCRASQSVSSNLAWYQQKPGQAPRLLIYGASTRATGIPARFSGSGSGTEFTLTISSLQSEDFAVYYCQQYYNWPLTFGGGTKVEIK
B4: H2M2705N (antibody, mouse IgG2, V domains shown)
VH: QVQLVESGGGVVQPGRSLRLACVASGFTFRSYGMHWVRQAPGKGLQWVAMIYYDGKNKYYADSVRGRFTISRDNSKNTLYLQMNNLRVEDTAMYFCARGPGYNWLDPWGQGTLVTVSS
VL: EIVMTQSPATLSVSPGERATLSCRASQRISSNLAWYQQKPGQAPRLLIYGASTRATGSPARFSGSGSGTDFTLTISSLQSEDVAVYYCQQHHNWPLTFGGGTKVEIK
B5: H2M2706N (antibody, mouse IgG2, V domains shown)
VH: QVQLVESGGGVVQPGRSLRLSCAASGFTFRSYAMHWVRQAPGKGLEWVAMVYYDGNNQYYADSVRGRFTISRDNSKNTLYLQMNSLRADDTAVYFCARGPGYNWLDPWGQGTLVTVSS
VL: EIVMTQSPATLSVSPGERATLSCRASQSVSRNLAWYQQKPGQAPRLLIYGASTRATGIPARFSGSGSGTDFTLTISSLQSEDFAVYYCQQYNNWPLTFGGGTKVVIK
B6: H2M2707N (antibody, mouse IgG2, V domains shown)
VH: QVQLVESGGGVVQPGRSLRLSCIASGFTFRSYGMHWVRQAPGKGLEWVAMIYYDGNNKYYADSVRGRFTISRDNSKNTLYLQMNSLRADDTAVYFCARGPGYNWLDPWGQGTLVTVSS
VL: EIVMTQSPATLSVSPGERATLSCRASQSVSSNLAWYQQKPGQAPRLLIYGASTRATGIPARFSGSGSGTEFTLTISSLQSEDFAVYYCQQYNNRPLTFGGGTKVEIK
B7: H2M2708N (antibody, mouse IgG2, V domains shown)
VH: QVQLVESGGGVVQPGRSLRLSCAASGFTFRSFGMHWVRQAPGRGLEWVAMIYFDGKNKYYADSVRGRFTISRDNSKNTLYLEMSSLRAEDTAVYFCARGPGYNWLDPWGQGTLVTVSS
VL: EIVMTQSPATLSVSPGERVTLSCRASQSISRNLAWYQQKPGQAPRLLIYGASTRATGVPARFSGSGSGTEFTLTISSLQSEDFAVFHCQQYNNRPLTFGGGTEVEIK
B8: H2M2710N (antibody, V domains shown)
VH: QVQLVESGGGVVQPGRSLRLSCAASGFTFRSFGMHWVRQAPGRGLEWVAMIYFDGKNKYYADSVRGRFTISRDNSKNTLYLEMSSLRAEDTAVYFCARGPGYNWLDPWGQGTLVTVSS
VL: EIVMTQSPATLSVSPGERATLSCRASQSVSRNLAWYQQKPGQAPRLLIYGASTRATGVPARFSGSGSGTEFTLTISSLQSEDFAVFHCQQYNNRPLTFGGGTEVEIK

Target: human CD3 expressed on cells (Jurkat cells; human T-cells of PBMC) (human, UniProt P09693 23-182; P20963 22-164)
Assay: cell-based or functional assay

Chain of human CD3 expressed on cells (Jurkat cells; human T-cells of PBMC) (chain, as listed by the source, chain 1 of 4): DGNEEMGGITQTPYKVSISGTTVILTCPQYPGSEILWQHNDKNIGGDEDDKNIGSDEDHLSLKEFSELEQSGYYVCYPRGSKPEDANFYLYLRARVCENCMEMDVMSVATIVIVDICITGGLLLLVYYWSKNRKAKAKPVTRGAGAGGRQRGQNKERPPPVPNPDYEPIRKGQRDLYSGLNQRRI
Chain of human CD3 expressed on cells (Jurkat cells; human T-cells of PBMC) (chain, as listed by the source, chain 2 of 4): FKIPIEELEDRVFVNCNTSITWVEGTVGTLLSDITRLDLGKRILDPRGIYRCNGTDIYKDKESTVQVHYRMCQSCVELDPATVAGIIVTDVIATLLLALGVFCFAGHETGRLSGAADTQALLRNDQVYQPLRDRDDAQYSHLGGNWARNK
Chain of human CD3 expressed on cells (Jurkat cells; human T-cells of PBMC) (P09693 23-182, chain 3 of 4): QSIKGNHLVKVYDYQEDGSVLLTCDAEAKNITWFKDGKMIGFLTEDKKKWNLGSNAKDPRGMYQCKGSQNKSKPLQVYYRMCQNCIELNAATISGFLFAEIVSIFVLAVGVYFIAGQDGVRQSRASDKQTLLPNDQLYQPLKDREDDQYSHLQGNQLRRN
Chain of human CD3 expressed on cells (Jurkat cells; human T-cells of PBMC) (P20963 22-164, chain 4 of 4): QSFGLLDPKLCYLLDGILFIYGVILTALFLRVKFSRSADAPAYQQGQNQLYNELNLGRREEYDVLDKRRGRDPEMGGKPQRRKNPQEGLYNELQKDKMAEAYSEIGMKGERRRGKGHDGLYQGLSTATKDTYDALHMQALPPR

Binder	U937 Cytotoxicity Human T-cells
B1	27.9 pM
B2	23.4 pM
B3	359 pM
B4	1.73 pM
B5	7.91 pM
B6	7.21 pM
B7	3.27 pM
B8	3.97 pM
